{"source": "paper doi:10.1101/2023.05.06.539669", "about": "(bioRxiv, 2023)", "biological_target": "bacterially expressed wild-type HRAS (human, UniProt P01112 1-189)", "sequence (P01112 whole entry)": "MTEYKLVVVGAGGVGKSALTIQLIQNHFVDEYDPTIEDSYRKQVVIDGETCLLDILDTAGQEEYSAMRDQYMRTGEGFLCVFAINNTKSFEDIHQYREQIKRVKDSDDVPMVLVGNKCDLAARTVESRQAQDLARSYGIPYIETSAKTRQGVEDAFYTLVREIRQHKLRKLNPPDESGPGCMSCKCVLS", "test": "ITC", "note": "Several values for one entry are separate records, joined by “and”; a condition that tells them apart may be missing. Identical values can stand only once. Where no end group is shown, it is not given here.", "data": [{"binder": "YRLEKQSEPNV-NH2", "note": "[S-016-1034 (CDRI-S-016-1034), 11-mer peptide derived from the RAS-Binding-Domain of mSIN1]", "values": [{"measurement": "Kd", "result": "9.54 µM and 8.95 µM"}]}]}
